The results in this text go back to patent publication US20260217760A1 (Chugai, published 2026).

The target of assay [1] is T1, protein A (UniProt P38507 37-327).
T1 construct: Immobilised on resin; also called rProtein A Sepharose Fast Flow column (GE Healthcare); HiTrap protein A HP column (GE Healthcare)
Description: rProtein A Sepharose Fast Flow column, stepwise pH elution; fractions analysed by cation exchange chromatography.
Description: The CM samples were filtered through a filter with a pore size of 0.22 μm, and loaded onto an rProtein A Sepharose Fast Flow column (GE Healthcare) equilibrated with D-PBS. The volume of CM to be loaded onto the column was adjusted to 20 mg antibody/ml resin. Fractions eluted under each condition were collected, and the respective eluted fractions were analyzed by cation exchange chromatography to identify their components. To prepare controls, each CM was loaded onto rProtein G Sepharose Fast Flow resin (GE Healthcare). Samples purified by batchwise elution were used as controls. Since protein G binds to the Fab domain of an antibody, all antibody species (a bispecific antibody of interest in which two types of H chains are associated in a heteromeric manner (heteromeric antibody) and as an impurity monospecific homomeric antibodies in which single-type H chains are homomerically associated) in CM can be purified by using protein G, regardless of their protein A-binding affinity.

Assay [2] deals with T1, protein A. Description: rProtein A Sepharose Fast Flow column, elution at pH 3.6; cation exchange analysis.
Description: (§1) The CM samples were filtered through a filter with a pore size of 0.22 μm, and loaded onto an rProtein A Sepharose Fast Flow column (GE Healthcare) equilibrated with D-PBS. […] The volume of CM to be loaded onto the column was adjusted to 20 mg antibody/ml resin. Respective fractions eluted under each condition were collected and analyzed by cation exchange chromatography to identify their components. […] Samples purified by batchwise elution were used as controls.
In assay [3] the target is T1, protein A. Description: rProtein A Sepharose Fast Flow column, elution at pH 3.6 and 2.7; cation exchange analysis.
Description: as §1
Assay [4] deals with T1, protein A. In words: HiTrap protein A HP column, pH gradient elution.
Description: CM samples were filtered through a filter with a pore size of 0.22 μm and loaded onto a HiTrap protein A HP column (GE Healthcare) equilibrated with D-PBS. The column was sequentially subjected to washes 1 and 2 and elution with a pH gradient using elution A and B as shown in Table 18.
The target of assay [5] is T1, protein A. In words: HiTrap protein A HP column, pH gradient elution; size exclusion analysis. For orientation: In gel filtration, larger molecules generally elute earlier.
Description: The CM samples were filtered through a filter with a pore size of 0.22 μm, and loaded onto a HiTrap protein A HP column (GE Healthcare) equilibrated with D-PBS. […] Eluted fractions were collected and analyzed by size exclusion chromatography analysis to identify their components.

Numbering of substitutions follows the chain as printed.

B1: J142-z72/L180-k (antibody, human IgG4 S228P, kappa)
heavy: QVQLVQSGSELKKPGASVKVSCKASGYTFTDNNMDWVRQAPGQGLEWMGDINTRSGGSIYNEEFQDRVTMTIDKSTGTAYMELSSLRSEDTAVYYCARRRSYGYYHDEWGEGTLVTVSSASTKGPSVFPLAPCSRSTSESTAALGCLVKDYFPEPVTVSWNSGALTSGVHTFPAVLQSSGLYSLSSVVTVPSSSLGTKTYTCNVDHKPSNTKVDKRVESKYGPPCPPCPAPEFLGGPSVFLFPPKPKDTLMISRTPEVTCVVVDVSQEDPEVQFNWYVDGVEVHNAKTKPREEQFNSTYRVVSVLTVLHQDWLNGKEYKCKVSNKGLPSSIEKTISKAKGQPREPQVYTLPPSQEEMTKNQVSLTCLVKGFYPSDIAVEWESNGQPENNYKTTPPVLDSDGSFFLYSRLTVDKSRWQEGNVFSCSVMHEALHNRFTQKSLSLSP
light: DIQMTQSPSSLSASVGDRVTITCKASRNIERNLAWYQQKPGQAPELLIYSASRKESGVPDRFSGSRYGTDFTLTISSLQPEDLATYYCQQYYSPPLTFGGGTKVEIKRTVAAPSVFIFPPSDEQLKSGTASVVCLLNNFYPREAKVQWKVDNALQSGNSQESVTEQDSKDSTYSLSSTLTLSKADYEKHKVYACEVTHQGLSSPVTKSFNRGEC
notes: Homomeric by-product in culture medium of Q153-G4d/J142-z72/L180-k; also called homomeric antibody J142-z72; homomeric antibody against FX
In the case of B1, in the assay with protein A [1], the binding result is “no binding”.

B2: J300-z107/L210-k (antibody, human IgG4 S228P, kappa)
heavy: QVQLVQSGSELKKPGASVKVSCKASGYTFTDNNMDWVRQAPGQGLEWMGDINTRSGGSIYNEEFQDRVIMTVDKSTDTAYMELSSLRSEDTAVYHCARRKSYGYYLDEWGEGTLVTVSSASTKGPSVFPLAPCSRSTSESTAALGCLVKDYFPEPVTVSWNSGALTSGVHTFPAVLQSSGLYSLSSVVTVPSSSLGTQTYTCNVDHKPSNTKVDKRVESKYGPPCPPCPAPEFLGGPSVFLFPPKPKDTLMISRTPEVTCVVVDVSQEDPEVQFNWYVDGVEVHNAKTKPREEQYNSTYRVVSVLTVLHQDWLNGKEYKCKVSNKGLPSSIEKTISKAKGQPREPQVYTLPPSQEEMTKNQVSLTCLVKGFYPSDIAVEWESNGQPENNYKTTPPVLDSDGSFFLYSKLTVDKSRWQEGNVFSCSVMHEALHNRYTQESLSLSP
light: B1 light with L83I, Y92S
notes: also called homomeric antibody J300-z107; homomeric antibody against FX
For B2, in the assay with protein A [2], the binding result is reported as “no binding”.

B3: J142-z73/L180-k (antibody, human IgG4 S228P, kappa)
heavy: B1 heavy with K438E
light: B1 light
notes: Homomeric by-product in culture medium of Q153-z7/J142-z73/L180-k; also called homomeric antibody J142-z73; homomeric antibody against FX
For the molecule B3, the binding result in the assay with protein A [3] is on record as “no binding”.

B4: homomeric antibody having the H chain of the anti-GPC3 antibody (from no6) (antibody)
heavy: DVVMTQSPLSLPVTPGEPASISCRSSQSLVHSNRNTYLHWYLEKPGQSPQLLIYKVSNRFSGVPDRFSGSGSGTDFTLKISRVEAEDVGVYYCSQNTHVPPTFGQGTKLEIKSSASTKGPSVFPLAPSSKSTSGGTAALGCLVKDYFPEPVTVSWNSGALTSGVHTFPAVLQSSGLYSLSSVVTVPSSSLGTQTYICNVNHKPSNTKVDKKVEPKSCDKTHTCPPCPAPEAAGGPSVFLFPPKPKDTLMISRTPEVTCVVVDVSHEDPEVKFNWYVDGVEVHNAKTKPREEQYASTYRVVSVLTVLHQDWLNGKEYKCKVSNKALPAPIEKTISKAKGQPREPQVYTLPPSRKELTKNQVSLTCLVKGFYPSDIAVEWESNGQPENNYKTTPPVLDSDGSFFLYSKLTVDKSRWQQGNVFSCSVMHEALHNRYTQKSLSLSP
light: QVQLVQSGAEVKKPGASVKVSCKASGYTFTDYEMHWIRKPPGKGLEWIGAINPKTGDTAYSQKFKGRVTLTADKSTSTAYMELSSLTSEDTAVYYCTRFYSYTYWGRGTLVTVSSASVAAPSVFIFPPSDEQLKSGTASVVCLLNNFYPREAKVQWKVDNALQSGNSQESVTEQDSKDSTYSLSSTLTLSKADYEKHKVYACEVTHQGLSSPVTKSFNRGEC
notes: also called no6-Gh-H homomer
On to B4, for which, in the assay with protein A [4], the binding result is listed as “no binding”.

B5: homomeric antibody NTA4L-G3 (antibody, human IgG1, kappa, L234A L235A, N297A)
heavy: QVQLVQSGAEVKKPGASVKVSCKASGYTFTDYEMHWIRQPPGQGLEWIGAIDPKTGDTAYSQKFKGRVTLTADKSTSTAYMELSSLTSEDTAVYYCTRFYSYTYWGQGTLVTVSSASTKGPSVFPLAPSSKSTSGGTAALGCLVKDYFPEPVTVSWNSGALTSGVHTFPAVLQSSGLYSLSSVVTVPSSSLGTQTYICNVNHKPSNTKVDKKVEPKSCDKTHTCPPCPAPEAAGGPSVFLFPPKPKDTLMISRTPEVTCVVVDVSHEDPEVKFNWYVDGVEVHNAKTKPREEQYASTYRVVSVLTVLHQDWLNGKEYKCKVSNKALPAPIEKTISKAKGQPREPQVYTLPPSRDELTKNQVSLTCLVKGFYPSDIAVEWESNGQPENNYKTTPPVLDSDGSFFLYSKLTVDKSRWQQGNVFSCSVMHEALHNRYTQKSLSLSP
light: DVVMTQSPLSLPVTPGEPASISCRSSQSLVHSNRNTYLHWYLQKPGQSPQLLIYKVSNRFSGVPDRFSGSGSGTDFTLKISRVEAEDVGVYYCSQNTHVPPTFGQGTKLEIKRTVAAPSVFIFPPSDEQLKSGTASVVCLLNNFYPREAKVQWKVDNALQSGNSQESVTEQDSKDSTYSLSSTLTLSKADYEKHKVYACEVTHQGLSSPVTKSFNRGEC
notes: Homomeric by-product; also called NTL4L-G3
For B5, in the assay with protein A [5], the binding result is on record as “no binding”.
